# Assay results as given in US20200023080A1, “COMPOSITIONS AND METHOD FOR THE TREATMENT AND DETECTION OF COLON CANCER” (priority 2015, published 2020).
# Positions of bridges follow the written chain, without caps; N, C: chain ends. Non-standard residues stand in square brackets, D forms with d. No end group written: not given here. Cy5.5 = cyanine dye Cy5.5, conjugated via NHS ester; Cy3 = cyanine dye Cy3, conjugated via NHS ester
# T1: cell membranes isolated from rat intestinal tissues (Rattus norvegicus, UniProt P23897)
# T1 construct: cell membranes isolated from T84 cells and from rat intestinal tissues; from tissue; host or cells: rat intestinal tissue membranes
# T1 sequence (P23897 23-1072): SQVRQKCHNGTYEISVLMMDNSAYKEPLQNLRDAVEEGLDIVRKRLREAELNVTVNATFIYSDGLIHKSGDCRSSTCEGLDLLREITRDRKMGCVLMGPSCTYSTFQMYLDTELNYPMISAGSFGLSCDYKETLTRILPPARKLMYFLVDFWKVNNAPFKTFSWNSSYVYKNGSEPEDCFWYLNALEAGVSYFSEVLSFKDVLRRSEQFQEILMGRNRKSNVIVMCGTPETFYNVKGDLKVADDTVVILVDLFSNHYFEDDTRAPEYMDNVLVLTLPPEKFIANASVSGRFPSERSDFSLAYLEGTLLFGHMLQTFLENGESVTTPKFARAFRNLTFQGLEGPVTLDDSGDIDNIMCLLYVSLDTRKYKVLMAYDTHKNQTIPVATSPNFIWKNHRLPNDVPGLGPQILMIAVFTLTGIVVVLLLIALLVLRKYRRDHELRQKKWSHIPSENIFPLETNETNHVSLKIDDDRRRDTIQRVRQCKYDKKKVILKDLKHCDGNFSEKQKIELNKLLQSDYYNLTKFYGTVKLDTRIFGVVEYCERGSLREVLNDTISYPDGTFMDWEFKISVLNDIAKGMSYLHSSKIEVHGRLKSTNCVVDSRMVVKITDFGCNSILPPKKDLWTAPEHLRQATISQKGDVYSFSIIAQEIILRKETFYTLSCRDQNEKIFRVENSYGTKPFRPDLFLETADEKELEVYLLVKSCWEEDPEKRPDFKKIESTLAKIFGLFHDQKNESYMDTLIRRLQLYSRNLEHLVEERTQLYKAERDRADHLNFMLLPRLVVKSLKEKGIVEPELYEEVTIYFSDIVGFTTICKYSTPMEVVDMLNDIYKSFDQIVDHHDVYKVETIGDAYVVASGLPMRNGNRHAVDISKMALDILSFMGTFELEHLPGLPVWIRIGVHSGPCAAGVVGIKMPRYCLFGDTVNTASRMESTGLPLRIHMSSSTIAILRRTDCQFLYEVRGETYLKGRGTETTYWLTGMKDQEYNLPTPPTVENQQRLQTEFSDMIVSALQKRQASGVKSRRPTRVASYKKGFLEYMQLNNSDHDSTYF
# T2: GC-C receptor in rat intestinal tissues (rat, UniProt P23897 23-1072)
# T2 construct: whole, on cells; the protein target is inferred from the preceding sentence on GC-C receptors; also called cell membranes from rat intestinal tissues; rat intestinal fragments
# T2 sequence (looked up): T1 sequence (P23897 23-1072)
# B1: SP-333 (dolcanatide), unlabeled (peptide)
# peptide: [dN]DECELCVNVACTGC[dL]
# modifications: disulfide 4-12, 7-15
# notes: Synthetic analog of uroguanylin; also called Api 1251
# Legend:
# GC-C receptor = GC-C receptor (Homo sapiens, UniProt P25092); test: Binding of dye-conjugated SP-333 to GC-C receptors (method not specified)
# Chain of GC-C receptor (P25092 24-1073): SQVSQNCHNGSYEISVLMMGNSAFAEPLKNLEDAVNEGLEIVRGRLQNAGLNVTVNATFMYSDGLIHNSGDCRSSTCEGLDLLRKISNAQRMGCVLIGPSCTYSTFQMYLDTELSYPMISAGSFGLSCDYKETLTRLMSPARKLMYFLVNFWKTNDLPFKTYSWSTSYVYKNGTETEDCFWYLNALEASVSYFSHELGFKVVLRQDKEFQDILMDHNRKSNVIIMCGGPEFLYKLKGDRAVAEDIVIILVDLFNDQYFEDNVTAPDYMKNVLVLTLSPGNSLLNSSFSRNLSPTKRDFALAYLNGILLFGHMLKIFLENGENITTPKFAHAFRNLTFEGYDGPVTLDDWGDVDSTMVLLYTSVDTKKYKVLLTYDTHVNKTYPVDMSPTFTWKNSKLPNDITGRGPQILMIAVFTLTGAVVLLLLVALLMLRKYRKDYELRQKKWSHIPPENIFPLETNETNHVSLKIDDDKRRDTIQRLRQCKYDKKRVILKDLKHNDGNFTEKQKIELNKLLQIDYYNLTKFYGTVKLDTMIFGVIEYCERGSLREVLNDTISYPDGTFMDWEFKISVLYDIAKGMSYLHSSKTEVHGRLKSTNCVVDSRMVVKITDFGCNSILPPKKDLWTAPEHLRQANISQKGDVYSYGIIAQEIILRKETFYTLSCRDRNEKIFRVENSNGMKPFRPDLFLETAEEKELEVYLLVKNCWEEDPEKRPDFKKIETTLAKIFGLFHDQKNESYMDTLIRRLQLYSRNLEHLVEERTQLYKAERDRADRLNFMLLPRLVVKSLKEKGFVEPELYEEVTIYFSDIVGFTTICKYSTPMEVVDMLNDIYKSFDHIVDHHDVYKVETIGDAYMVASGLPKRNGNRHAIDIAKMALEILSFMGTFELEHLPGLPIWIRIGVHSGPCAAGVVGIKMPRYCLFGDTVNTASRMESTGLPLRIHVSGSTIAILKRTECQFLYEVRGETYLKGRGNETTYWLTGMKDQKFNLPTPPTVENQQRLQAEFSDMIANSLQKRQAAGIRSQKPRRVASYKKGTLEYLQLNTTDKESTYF
# Source text: (§1) SP-333 was labeled with an appropriate infrared (IR) fluorescence dye for in vivo imaging purposes. The peptide was to be labeled with an appropriate IR dye through the reaction of a N-hydroxysuccinamidyl (NHS) activated ester with the amine group of the peptide. Our initial test with the VivoTag680 NHS ester supplied by PerkinElmer, Inc was not successful. […] Labeling SP-333 with Cy3 and the subsequent HPLC purification was successful, with an overall labeling efficiency of 30% achieved. […] Both Cy3 and Cy5.5 belong to a family of cyanine fluorescence dyes used in bioimaging applications. […] We performed similar binding experiments with the cell membranes isolated from T84 cells and from rat intestinal tissues. […] Thus, SP-333-IR680 fluorescence was custom synthesized.
# [1] = biological target: T3, cell membranes isolated from T84 cells (Homo sapiens, UniProt P25092); test: Binding of Cy3/Cy5.5 probes to cell membranes isolated from T84 cells
# T3 construct: endogenous in cells; host or cells: T84 cells, intact or as isolated cell membranes
# T3 sequence (P25092 24-1073): as above
# Source text: as §1
# [2] = biological target: T4, GC-C receptors expressed on the surface of T84 cells (Homo sapiens, UniProt P25092); test: Binding of Cy3/Cy5.5 probes to T84 cells
# T4 construct: endogenous in cells; host or cells: T84 cells, intact or as isolated cell membranes
# T4 sequence (P25092 24-1073): as above
# Source text: as §1
# [3] = biological target: T1, cell membranes isolated from rat intestinal tissues; test: Binding of Cy3/Cy5.5 probes to cell membranes from rat intestinal tissues
# Source text: as §1
# rat intestinal fragments = test: Ex vivo binding of Cy3/Cy5.5 probes with rat intestinal fragments
# Source text: as §1
# [4] = biological target: T2, GC-C receptor in rat intestinal tissues; test: binding to cell membranes from rat intestinal tissues; ex vivo binding with rat intestinal fragments
# [5] = biological target: T5, Guanylate cyclase C (GC-C) receptor expressed on human T84 cells (human, UniProt P25092 24-1073); test: competition of unlabeled SP-333 against IR680-SP-333 probe binding on T84 cells
# T5 construct: whole, on cells; also called GC-C receptors
# T5 sequence (P25092 24-1073): as above
Molecule,binding to GC-C receptors after conjugation of dye to the N-terminal of SP-333 (GC-C receptor),specific binding to cell membranes isolated from T84 cells [1],specific binding to GC-C receptors on the surface of T84 cells [2],specific binding to cell membranes isolated from rat intestinal tissues [3],specific binding in ex vivo binding with rat intestinal fragments (rat intestinal fragments),binding result [4],IC50 [5] [nM]
"Cy5.5-SP-333: SP-333 conjugated with cyanine fluorescence dye Cy5.5 NHS ester ({Cy5.5}-[dN]DECELCVNVACTGC[dL]; disulfide 4-12, 7-15)",without appreciable loss,did not show any specific binding,failed to exhibit specific binding,did not show any specific binding,lack of specific binding,,
"Cy3-SP-333: SP-333 conjugated with cyanine fluorescence dye Cy3-NHS ester (Cy3-[dN]DECELCVNVACTGC[dL]; disulfide 4-12, 7-15)",without appreciable loss,did not show any specific binding,failed to exhibit specific binding,did not show any specific binding,lack of specific binding,,
"{Cy5.5}-[dN]DECELCVNVACTGC[dL] (disulfide 4-12, 7-15) [Cy5.5-SP-333]",,,,,,no binding,
"Cy3-[dN]DECELCVNVACTGC[dL] (disulfide 4-12, 7-15) [Cy3-SP-333]",,,,,,no binding,
B1,,,,,,,~1600
